Data from US20240024432A1 (DENALI THERAPEUTICS, published 2024).
Positions count from the first letter of the chain named.

B1: 3.2-14 (designed binder)
modified Fc polypeptide displayed on yeast (c-Myc tagged): PCPAPELLGGPSVFLFPPKPKDTLMISRTPEVTCVVVDVSHEDPEVKFNWYVDGVEVHNAKTKPREEQYNSTYRVVSVLTVLHQDWLNGKEYKCKVSNKALPAPIEKTISKAKGQPREPQVYTLPPSRDELTKNQVSLTCLVKGFYPSDIAVEWESLGHVWVGVKTTPPVLDSDGSFFLYSKLTVPKSTWQQGWVFSCSVMHEALHNHYTQKSLSLSPGK
notes: also called CH3C.3.2-14
B2: 3.2-17 (designed binder)
modified Fc polypeptide displayed on yeast (c-Myc tagged): B1 modified Fc polypeptide displayed on yeast (c-Myc tagged) with V164T
notes: also called CH3C.3.2-17
B3: 3.2-19 (designed binder)
modified Fc polypeptide displayed on yeast (c-Myc tagged): B1 modified Fc polypeptide displayed on yeast (c-Myc tagged) with G163N, V164Q
notes: also called CH3C.3.2-19
B4: 3.2-24 (designed binder)
modified Fc polypeptide displayed on yeast (c-Myc tagged): B1 modified Fc polypeptide displayed on yeast (c-Myc tagged) with G163H, V164T
notes: also called CH3C.3.2-24
B5: 3.4-1 (designed binder)
modified Fc polypeptide displayed on yeast (c-Myc tagged): B1 modified Fc polypeptide displayed on yeast (c-Myc tagged) with L157W, H159F, V162S, G163T, V164Y, T189N, W194F
notes: also called CH3C.3.4-1
B6: 3.4-19 (designed binder)
modified Fc polypeptide displayed on yeast (c-Myc tagged): B1 modified Fc polypeptide displayed on yeast (c-Myc tagged) with L157W, V162S, G163T, V164Y, T189N, W194Y
notes: also called CH3C.3.4-19
B7: 3.4-26 (designed binder)
modified Fc polypeptide displayed on yeast (c-Myc tagged): B1 modified Fc polypeptide displayed on yeast (c-Myc tagged) with L157W, H159T, V162G, G163T, V164Y, T189N, W194Y
notes: also called CH3C.3.4-26
B8: CH3C.35 (designed binder)
modified Fc polypeptide displayed on yeast (c-Myc tagged): B1 modified Fc polypeptide displayed on yeast (c-Myc tagged) with L157Y, H159T, V160E, V162S, G163S, V164Y, P186T, T189E, W194F
B9: 3.1-3 (designed binder)
modified Fc polypeptide displayed on yeast (c-Myc tagged): B1 modified Fc polypeptide displayed on yeast (c-Myc tagged) with G163A, V164T
notes: also called CH3C.3.1-3
B10: 3.2-1 (designed binder)
modified Fc polypeptide displayed on yeast (c-Myc tagged): B1 modified Fc polypeptide displayed on yeast (c-Myc tagged) with G163N, V164F
notes: also called CH3C.3.2-1
B11: 3.2-3 (designed binder)
modified Fc polypeptide displayed on yeast (c-Myc tagged): B1 modified Fc polypeptide displayed on yeast (c-Myc tagged) with G163E, V164Q
notes: also called CH3C.3.2-3
B12: 3.2-5 (designed binder)
modified Fc polypeptide displayed on yeast (c-Myc tagged): B1 modified Fc polypeptide displayed on yeast (c-Myc tagged) with G163D, V164Q
notes: also called CH3C.3.2-5

These binders were tested against T1, human transferrin receptor (TfR) ectodomain (ECD) (human, UniProt P02786 121-760, biotinylated where captured on streptavidin) (assay: yeast surface display flow cytometry; yeast-displayed clone stained with 250 nM biotinylated human TfR, neutravidin-AF647; median fluorescence intensity).
T1 construct: also called human TfR; huTfR; not shown: C-terminal cleavable His- and Avi-tags
Experimental: (§1) For each clone, two million cells were washed three times in PBS+0.5% BSA at pH 7.4. […] Cells were stained with nuetravidin-Alexafluor647 (AF647) for 30 minutes at 4° C., then washed twice again. Expression was measured using anti-c-myc antibody with anti-chicken-Alexfluor488 (AF488) secondary antibody. Cells were resuspended, and median fluorescence intensity (MFI) of AF647 and AF488 was measured on a BD FACS CantoII. MFI was calculated for the TfR-binding population for each population and plotted with human TfR, cyno TfR, or control binding (FIG. 44).

Binder	binding result
B1	binds
B2	binds
B3	binds
B4	binds
B5	binds
B6	binds
B7	binds
B8	binds
B9	binds
B10	binds
B11	binds
B12	binds

Target: T2, cynomolgus transferrin receptor (TfR) ectodomain (ECD) (cynomolgus, UniProt Q5RDH6 121-760 (Pongo abelii entry), biotinylated where captured on streptavidin)
T2 construct: also called cyno TfR; cynoTfR; not shown: C-terminal cleavable His- and Avi-tags
T2 chain: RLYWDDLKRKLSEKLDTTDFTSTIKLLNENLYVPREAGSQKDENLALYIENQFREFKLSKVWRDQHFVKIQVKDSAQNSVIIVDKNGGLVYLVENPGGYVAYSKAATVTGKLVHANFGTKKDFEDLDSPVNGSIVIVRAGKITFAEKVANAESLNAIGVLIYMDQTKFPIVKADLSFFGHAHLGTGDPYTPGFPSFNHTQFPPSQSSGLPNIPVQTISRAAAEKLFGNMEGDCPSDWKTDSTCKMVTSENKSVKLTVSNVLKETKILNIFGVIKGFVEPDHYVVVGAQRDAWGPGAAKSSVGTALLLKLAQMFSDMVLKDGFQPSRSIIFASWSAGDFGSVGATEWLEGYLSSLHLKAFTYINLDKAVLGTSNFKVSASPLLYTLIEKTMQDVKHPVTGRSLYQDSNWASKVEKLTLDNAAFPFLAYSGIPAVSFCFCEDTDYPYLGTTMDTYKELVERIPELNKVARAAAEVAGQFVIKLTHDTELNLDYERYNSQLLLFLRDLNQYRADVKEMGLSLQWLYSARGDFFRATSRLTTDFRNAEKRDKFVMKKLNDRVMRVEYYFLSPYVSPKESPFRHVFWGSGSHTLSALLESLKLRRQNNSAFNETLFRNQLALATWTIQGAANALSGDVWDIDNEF
Assay: yeast surface display flow cytometry; yeast-displayed clone stained with 250 nM biotinylated cyno TfR, neutravidin-AF647; median fluorescence intensity
Experimental: as §1

Binder	binding result
B1	binds
B2	binds
B3	binds
B4	binds
B5	binds
B6	binds
B7	binds
B8	binds
B9	binds
B10	binds
B11	binds
B12	binds
